B1: MYT11698 (antibody, V domains shown)
VH: QVQLVQSGAEVKKPGASVKVSCKASGYTFTTAGMQWVRQAPGQGLEWMGWINTHSGVPKYAEDFKGRVTISADTSTSTAYLQLSSLKSEDTAVYYCARSGFGSSYWYFDVWGQGTLVTVSS
VL: DIQMTQSPSSLSASVGDRVTITCKASQDVSTAVAWYQQKPGKAPKLLIYSASYRYTGVPSRFSGSGSGTDFTLTISSLQPEDFAVYYCQQHHITPLTFGQGTKLEIK
notes: IgG from supernatant; His at LCV position 92; also called datopotamab variant L3 04
B2: MYT11700 (antibody, V domains shown)
VH: QVQLVQSGAEVKKPGASVKVSCKASGYTFTTAGMQWVRQAPGQGLEWMGWINTHSGVPKYAEDFKGRVTISADTSTSTAYLQLSSLKSEDTAVYYCARSGFGSSYWYFDVWGQGTLVTVSS
VL: DIQMTQSPSSLSASVGDRVTITCKASQDVSTAVAWYQQKPGKAPKLLIYSASYRYTGVPSRFSGSGSGTDFTLTISSLQPEDFAVYYCQQHYIHPLTFGQGTKLEIK
notes: IgG from supernatant; His at LCV position 94; also called datopotamab variant L3 06
B3: MYT11701 (antibody, V domains shown)
VH: QVQLVQSGAEVKKPGASVKVSCKASGYTFTTAGMQWVRQAPGQGLEWMGWINTHSGVPKYAEDFKGRVTISADTSTSTAYLQLSSLKSEDTAVYYCARSGFGSSYWYFDVWGQGTLVTVSS
VL: DIQMTQSPSSLSASVGDRVTITCKASQDVSTAVAWYQQKPGKAPKLLIYSASYRYTGVPSRFSGSGSGTDFTLTISSLQPEDFAVYYCQQHYITHLTFGQGTKLEIK
notes: IgG from supernatant; His at LCV position 95; also called datopotamab variant L3 07
B4: MYT11702 (antibody, V domains shown)
VH: QVQLVQSGAEVKKPGASVKVSCKASGYTFTTAGMQWVRQAPGQGLEWMGWINTHSGVPKYAEDFKGRVTISADTSTSTAYLQLSSLKSEDTAVYYCARSGFGSSYWYFDVWGQGTLVTVSS
VL: DIQMTQSPSSLSASVGDRVTITCKASQDVSTAVAWYQQKPGKAPKLLIYSASYRYTGVPSRFSGSGSGTDFTLTISSLQPEDFAVYYCQQHYITPHTFGQGTKLEIK
notes: IgG from supernatant; His at LCV position 96; also called datopotamab variant L3 08
B5: MYT11703 (antibody, V domains shown)
VH: QVQLVQSGAEVKKPGASVKVSCKASGYTFTTAGMQWVRQAPGQGLEWMGWINTHSGVPKYAEDFKGRVTISADTSTSTAYLQLSSLKSEDTAVYYCARSGFGSSYWYFDVWGQGTLVTVSS
VL: DIQMTQSPSSLSASVGDRVTITCKASQDVSTAVAWYQQKPGKAPKLLIYSASYRYTGVPSRFSGSGSGTDFTLTISSLQPEDFAVYYCQQHYITPLHFGQGTKLEIK
notes: IgG from supernatant; His at LCV position 97; also called datopotamab variant L3 09
B6: MYT11756 (antibody, V domains shown)
VH: QVQLQESGPGLVKPSETLSLTCTVSGGSISSYGVHWIRQPPGKGLEWIGVIWTSGVTDYNSALMGRVTISVDTSKNQFSLKLSSVTAADTAVYYCARDGDYDRYTMDYWGQGTLVTVSS
VL: DIVMTQSPDSLAVSLGERATINCRASKSVSTSGYSHMHWYQQKPGQPPKLLIYLASNLESGVPDRFSGSGSGTDFTLTISSLQAEDVAVYYCQHSRELPYTFGQGTKLEIK
notes: hu7E6SVG variant, His at LCV position 36 (L1 13); screened as IgG in Expi293 supernatant
B7: MYT11758 (antibody, V domains shown)
VH: QVQLQESGPGLVKPSETLSLTCTVSGGSISSYGVHWIRQPPGKGLEWIGVIWTSGVTDYNSALMGRVTISVDTSKNQFSLKLSSVTAADTAVYYCARDGDYDRYTMDYWGQGTLVTVSS
VL: DIVMTQSPDSLAVSLGERATINCRASKSVSTSGYSYMAWYQQKPGQPPKLLIYLASNLESGVPDRFSGSGSGTDFTLTISSLQAEDVAVYYCQHSRELPYTFGQGTKLEIK
notes: hu7E6SVG variant, Ala in place of His at LCV position 38 (L1 15); screened as IgG in Expi293 supernatant
B8: MYT11759 (antibody, V domains shown)
VH: QVQLQESGPGLVKPSETLSLTCTVSGGSISSYGVHWIRQPPGKGLEWIGVIWTSGVTDYNSALMGRVTISVDTSKNQFSLKLSSVTAADTAVYYCARDGDYDRYTMDYWGQGTLVTVSS
VL: DIVMTQSPDSLAVSLGERATINCRASKSVSTSGYSYMHWYQQKPGQPPKLLIYHASNLESGVPDRFSGSGSGTDFTLTISSLQAEDVAVYYCQHSRELPYTFGQGTKLEIK
notes: hu7E6SVG variant, His at LCV position 54 (L2 01); screened as IgG in Expi293 supernatant
B9: MYT11760 (antibody, V domains shown)
VH: QVQLQESGPGLVKPSETLSLTCTVSGGSISSYGVHWIRQPPGKGLEWIGVIWTSGVTDYNSALMGRVTISVDTSKNQFSLKLSSVTAADTAVYYCARDGDYDRYTMDYWGQGTLVTVSS
VL: DIVMTQSPDSLAVSLGERATINCRASKSVSTSGYSYMHWYQQKPGQPPKLLIYLHSNLESGVPDRFSGSGSGTDFTLTISSLQAEDVAVYYCQHSRELPYTFGQGTKLEIK
notes: hu7E6SVG variant, His at LCV position 55 (L2 02); screened as IgG in Expi293 supernatant
B10: MYT11761 (antibody, V domains shown)
VH: QVQLQESGPGLVKPSETLSLTCTVSGGSISSYGVHWIRQPPGKGLEWIGVIWTSGVTDYNSALMGRVTISVDTSKNQFSLKLSSVTAADTAVYYCARDGDYDRYTMDYWGQGTLVTVSS
VL: DIVMTQSPDSLAVSLGERATINCRASKSVSTSGYSYMHWYQQKPGQPPKLLIYLAHNLESGVPDRFSGSGSGTDFTLTISSLQAEDVAVYYCQHSRELPYTFGQGTKLEIK
notes: hu7E6SVG variant, His at LCV position 56 (L2 03); screened as IgG in Expi293 supernatant
B11: MYT11762 (antibody, V domains shown)
VH: QVQLQESGPGLVKPSETLSLTCTVSGGSISSYGVHWIRQPPGKGLEWIGVIWTSGVTDYNSALMGRVTISVDTSKNQFSLKLSSVTAADTAVYYCARDGDYDRYTMDYWGQGTLVTVSS
VL: DIVMTQSPDSLAVSLGERATINCRASKSVSTSGYSYMHWYQQKPGQPPKLLIYLASHLESGVPDRFSGSGSGTDFTLTISSLQAEDVAVYYCQHSRELPYTFGQGTKLEIK
notes: hu7E6SVG variant, His at LCV position 57 (L2 04); screened as IgG in Expi293 supernatant
B12: MYT11763 (antibody, V domains shown)
VH: QVQLQESGPGLVKPSETLSLTCTVSGGSISSYGVHWIRQPPGKGLEWIGVIWTSGVTDYNSALMGRVTISVDTSKNQFSLKLSSVTAADTAVYYCARDGDYDRYTMDYWGQGTLVTVSS
VL: DIVMTQSPDSLAVSLGERATINCRASKSVSTSGYSYMHWYQQKPGQPPKLLIYLASNHESGVPDRFSGSGSGTDFTLTISSLQAEDVAVYYCQHSRELPYTFGQGTKLEIK
notes: hu7E6SVG variant, His at LCV position 58 (L2 05); screened as IgG in Expi293 supernatant
B13: MYT11764 (antibody, V domains shown)
VH: QVQLQESGPGLVKPSETLSLTCTVSGGSISSYGVHWIRQPPGKGLEWIGVIWTSGVTDYNSALMGRVTISVDTSKNQFSLKLSSVTAADTAVYYCARDGDYDRYTMDYWGQGTLVTVSS
VL: DIVMTQSPDSLAVSLGERATINCRASKSVSTSGYSYMHWYQQKPGQPPKLLIYLASNLHSGVPDRFSGSGSGTDFTLTISSLQAEDVAVYYCQHSRELPYTFGQGTKLEIK
notes: hu7E6SVG variant, His at LCV position 59 (L2 06); screened as IgG in Expi293 supernatant
B14: MYT11765 (antibody, V domains shown)
VH: QVQLQESGPGLVKPSETLSLTCTVSGGSISSYGVHWIRQPPGKGLEWIGVIWTSGVTDYNSALMGRVTISVDTSKNQFSLKLSSVTAADTAVYYCARDGDYDRYTMDYWGQGTLVTVSS
VL: DIVMTQSPDSLAVSLGERATINCRASKSVSTSGYSYMHWYQQKPGQPPKLLIYLASNLEHGVPDRFSGSGSGTDFTLTISSLQAEDVAVYYCQHSRELPYTFGQGTKLEIK
notes: hu7E6SVG variant, His at LCV position 60 (L2 07); screened as IgG in Expi293 supernatant
B15: MYT11767 (antibody, V domains shown)
VH: QVQLQESGPGLVKPSETLSLTCTVSGGSISSYGVHWIRQPPGKGLEWIGVIWTSGVTDYNSALMGRVTISVDTSKNQFSLKLSSVTAADTAVYYCARDGDYDRYTMDYWGQGTLVTVSS
VL: DIVMTQSPDSLAVSLGERATINCRASKSVSTSGYSYMHWYQQKPGQPPKLLIYLASNLESGVPDRFSGSGSGTDFTLTISSLQAEDVAVYYCQASRELPYTFGQGTKLEIK
notes: hu7E6SVG variant, Ala in place of His at LCV position 94 (L3 02); screened as IgG in Expi293 supernatant
B16: MYT11768 (antibody, V domains shown)
VH: QVQLQESGPGLVKPSETLSLTCTVSGGSISSYGVHWIRQPPGKGLEWIGVIWTSGVTDYNSALMGRVTISVDTSKNQFSLKLSSVTAADTAVYYCARDGDYDRYTMDYWGQGTLVTVSS
VL: DIVMTQSPDSLAVSLGERATINCRASKSVSTSGYSYMHWYQQKPGQPPKLLIYLASNLESGVPDRFSGSGSGTDFTLTISSLQAEDVAVYYCQHHRELPYTFGQGTKLEIK
notes: hu7E6SVG variant, His at LCV position 95 (L3 03); screened as IgG in Expi293 supernatant
B17: MYT11771 (antibody, V domains shown)
VH: QVQLQESGPGLVKPSETLSLTCTVSGGSISSYGVHWIRQPPGKGLEWIGVIWTSGVTDYNSALMGRVTISVDTSKNQFSLKLSSVTAADTAVYYCARDGDYDRYTMDYWGQGTLVTVSS
VL: DIVMTQSPDSLAVSLGERATINCRASKSVSTSGYSYMHWYQQKPGQPPKLLIYLASNLESGVPDRFSGSGSGTDFTLTISSLQAEDVAVYYCQHSREHPYTFGQGTKLEIK
notes: hu7E6SVG variant, His at LCV position 98 (L3 06); screened as IgG in Expi293 supernatant

These binders were tested against T1, Human TROP2 Protein, His Tag (human, UniProt P09758 27-274) (assay: BLI (Octet) [2/2]).
T1 construct: Bought protein; also called TACSTD2; not shown: His tag
T1 sequence (looked up): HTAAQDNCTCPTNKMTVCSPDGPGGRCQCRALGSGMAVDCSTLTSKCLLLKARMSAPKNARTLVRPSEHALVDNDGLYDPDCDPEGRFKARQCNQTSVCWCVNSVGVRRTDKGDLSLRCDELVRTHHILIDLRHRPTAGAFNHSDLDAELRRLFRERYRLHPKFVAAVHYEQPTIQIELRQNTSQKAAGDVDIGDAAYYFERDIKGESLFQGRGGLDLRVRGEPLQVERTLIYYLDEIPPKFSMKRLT
Description: (§1) After allowing for four days of protein expression, cell culture supernatants were collected, quantified by SDS-PAGE analysis (DNS), and the pH dependence of the variant was evaluated using biolayer interferometry (BLI) on an Octet RED 96e instrument. Briefly, cell culture supernatants were diluted based on qualitative expression level of the variant determined by visual examination of SDS-PAGE gels, 5 μL of cell culture supernatant was diluted into 195 μL of 1×PBST, pH 7.4 for high expressors, 25 μL of cell culture supernatant was diluted into 175 μL of 1×PBST, pH 7.4 for medium expressors and 100 μL of cell culture supernatant was diluted into 100 μL of 1×PBST, pH 7.4 for low expressors for loading onto the sensor tips. The resulting diluted supernatants were then captured on an anti-human Fc sensor (Forte Bio). A baseline was established using 1×PBST (50 mM Potassium Phosphate Buffer+150 mM NaCl+0.05% Tween 20) pH 7.4, and the sensor was associated with 50 nM of TROP2 (Human TROP2 Protein, His Tag, Acro Biosystems) in 1×PBST pH 7.4 for 120 sec to generate an association curve. In the dissociation phase, the antibody-antigen complex on the sensor was exposed to 1×PBST pH 7.4 or pH 5.4, for 300 sec. Association and dissociation phase curves were examined for the starting ABPC antibody (with no substitutions) and each corresponding antibody variant at pH 5.4 and pH 7.4 to inform on two criteria: a) enhanced dissociation (i.e., higher koff values) at pH 5.4 due to histidine or alanine substitution compared to the starting ABPC, (with no substitutions), and b) reduced dissociation at pH 7.4 (i.e., lower koff values) compared to pH 5.4 in the antibody variant itself and with the starting ABPC (with no substitutions). […] It was also noted that while some mutations obliterated TROP2 binding, others were tolerated with little or n change in TROP2 binding kinetics.
B1: no binding (tested: 50 nM).
B2: binds.
B3: binds.
B4: no binding (tested: 50 nM).
B5: no binding (tested: 50 nM).

Each binder was assayed against T2, Human TROP2 Protein, His Tag (Acro Biosystems) (human, UniProt P09758 27-274) (assay: BLI (Octet) [2/2]).
T2 construct: Bought antigen used at 50 nM in the Octet screen; also called TACSTD2; not shown: His tag
T2 sequence (looked up): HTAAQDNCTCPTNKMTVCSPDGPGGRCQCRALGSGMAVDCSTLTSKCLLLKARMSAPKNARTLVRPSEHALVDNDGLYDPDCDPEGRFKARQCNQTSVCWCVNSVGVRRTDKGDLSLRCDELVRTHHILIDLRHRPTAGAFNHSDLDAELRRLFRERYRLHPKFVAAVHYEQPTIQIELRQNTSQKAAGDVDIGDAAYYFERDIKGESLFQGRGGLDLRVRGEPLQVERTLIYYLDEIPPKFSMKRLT
Description: as §1
B6: binds.
B7: binds.
B8: binds.
B9: binds.
B10: binds.
B11: binds.
B12: binds.
B13: binds.
B14: binds.
B15: binds.
B16: no binding (tested: 50 nM).
B17: no binding (tested: 50 nM).

Reference: patent US20260274985A1 (MYTHIC THERAPEUTICS, published 2026)
